From paper PMC3563690 (The Journal of Cell Biology, 2013)

T1: HA-tagged mouse MDGA2 (mouse)
T1 sequence (P60755 whole entry, looked up): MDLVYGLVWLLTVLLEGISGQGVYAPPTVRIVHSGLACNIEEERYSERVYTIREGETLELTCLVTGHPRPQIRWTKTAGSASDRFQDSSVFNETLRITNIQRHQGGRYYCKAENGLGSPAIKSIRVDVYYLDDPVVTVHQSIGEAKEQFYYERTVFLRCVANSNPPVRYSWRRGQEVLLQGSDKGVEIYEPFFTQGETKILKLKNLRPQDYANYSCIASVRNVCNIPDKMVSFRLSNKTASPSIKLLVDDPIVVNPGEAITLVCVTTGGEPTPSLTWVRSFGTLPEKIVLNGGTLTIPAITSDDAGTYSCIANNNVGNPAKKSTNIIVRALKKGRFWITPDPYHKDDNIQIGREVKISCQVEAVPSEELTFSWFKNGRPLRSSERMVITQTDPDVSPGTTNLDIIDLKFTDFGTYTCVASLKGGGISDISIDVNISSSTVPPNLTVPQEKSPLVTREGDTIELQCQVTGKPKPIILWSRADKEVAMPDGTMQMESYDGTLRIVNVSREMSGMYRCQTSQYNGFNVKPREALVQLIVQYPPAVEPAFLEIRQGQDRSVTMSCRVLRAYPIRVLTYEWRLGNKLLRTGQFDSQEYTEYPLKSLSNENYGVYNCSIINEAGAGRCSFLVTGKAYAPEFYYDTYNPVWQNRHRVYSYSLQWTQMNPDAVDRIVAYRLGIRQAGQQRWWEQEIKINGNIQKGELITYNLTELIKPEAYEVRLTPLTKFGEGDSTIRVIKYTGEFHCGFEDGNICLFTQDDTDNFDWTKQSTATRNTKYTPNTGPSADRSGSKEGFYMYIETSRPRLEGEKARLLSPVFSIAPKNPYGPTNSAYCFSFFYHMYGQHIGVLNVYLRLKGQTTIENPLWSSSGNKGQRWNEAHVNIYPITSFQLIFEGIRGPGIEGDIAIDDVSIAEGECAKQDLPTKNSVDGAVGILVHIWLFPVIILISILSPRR

T2: extracellular HA-tagged rat MDGA1 (rat, UniProt P85171 19-933)
T2 sequence (looked up): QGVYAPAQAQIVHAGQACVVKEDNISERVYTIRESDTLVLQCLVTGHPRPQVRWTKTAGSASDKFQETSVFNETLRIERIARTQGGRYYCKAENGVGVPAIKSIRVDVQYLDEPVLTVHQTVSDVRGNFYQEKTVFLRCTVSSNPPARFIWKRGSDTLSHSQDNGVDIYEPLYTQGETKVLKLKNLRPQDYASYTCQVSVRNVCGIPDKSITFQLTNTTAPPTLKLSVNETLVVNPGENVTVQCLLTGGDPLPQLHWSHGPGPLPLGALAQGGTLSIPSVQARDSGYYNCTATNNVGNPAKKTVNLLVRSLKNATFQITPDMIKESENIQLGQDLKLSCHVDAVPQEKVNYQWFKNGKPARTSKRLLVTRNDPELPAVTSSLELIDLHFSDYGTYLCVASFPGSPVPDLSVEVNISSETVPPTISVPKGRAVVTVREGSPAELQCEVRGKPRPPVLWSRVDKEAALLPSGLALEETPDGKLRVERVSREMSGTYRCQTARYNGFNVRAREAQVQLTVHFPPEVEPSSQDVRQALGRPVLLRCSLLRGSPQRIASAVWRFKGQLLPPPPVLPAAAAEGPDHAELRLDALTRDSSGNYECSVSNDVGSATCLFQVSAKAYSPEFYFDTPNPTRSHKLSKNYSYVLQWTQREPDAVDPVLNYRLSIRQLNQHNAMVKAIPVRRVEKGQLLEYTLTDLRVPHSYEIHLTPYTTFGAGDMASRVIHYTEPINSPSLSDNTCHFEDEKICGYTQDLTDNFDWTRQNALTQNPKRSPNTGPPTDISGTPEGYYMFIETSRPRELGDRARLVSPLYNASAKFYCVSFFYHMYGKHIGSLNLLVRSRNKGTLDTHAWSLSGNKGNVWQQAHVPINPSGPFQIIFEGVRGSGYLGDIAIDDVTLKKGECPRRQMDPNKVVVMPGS


Tests used:
Assay in all cases: immunostaining of cells or tissue
[1] = biological target: HA-neurexin1β(−S4) (mouse | rat)
[2] = biological target: T1, HA-tagged mouse MDGA2 (mouse)
[3] = biological target: T2, extracellular HA-tagged rat MDGA1

Molecule | Kd [1] | Kd [2] | Kd [3]
soluble neuroligin-2–Fc fusion protein (from UniProt Q69ZK9 15-676) | 8.4 nM | 45.9 nM | –
soluble neuroligin-2–Fc fusion protein (Fc fusion, UniProt Q69ZK9 15-676, looked up) QRGGGGPGGGAPGGPGLGLGSLGEERFPVVNTAYGRVRGVRRELNNEILGPVVQFLGVPYATPPLGARRFQPPEAPASWPGVRNATTLPPACPQNLHGALPAIMLPVWFTDNLEAAATYVQNQSEDCLYLNLYVPTEDGPLTKKRDEATLNPPDTDIRDSGKKPVMLFLHGGSYMEGTGNMFDGSVLAAYGNVIVVTLNYRLGVLGFLSTGDQAAKGNYGLLDQIQALRWLSENIAHFGGDPERITIFGSGAGASCVNLLILSHHSEGLFQKAIAQSGTAISSWSVNYQPLKYTRLLAAKVGCDREDSTEAVECLRRKSSRELVDQDVQPARYHIAFGPVVDGDVVPDDPEILMQQGEFLNYDMLIGVNQGEGLKFVEDSAESEDGVSASAFDFTVSNFVDNLYGYPEGKDVLRETIKFMYTDWADRDNGEMRRKTLLALFTDHQWVAPAVATAKLHADYQSPVYFYTFYHHCQAEGRPEWADAAHGDELPYVFGVPMVGATDLFPCNFSKNDVMLSAVVMTYWTNFAKTGDPNQPVPQDTKFIHTKPNRFEEVVWSKFNSKEKQYLHIGLKPRVRDNYRANKVAFWLELVPHLHNLHTELFTTTTRLPPYATRWPPRTPGPGTSGTRRPPPPATLPPESDIDLGPRAYDRFPGDSRDYSTE | – | – | 7.3 nM
